{"source": "patent US20170342161A1", "about": "(APROGEN KIC, published 2017)", "key": {"[1]": {"target": "T1, carbonic anhydrase 12 (CA-XII) as expressed by human tumor cell lines (human, UniProt O43570 25-354)", "T1 construct": "also called CA12; CA12 antigen", "T1 sequence (O43570 25-354 limits assumed)": "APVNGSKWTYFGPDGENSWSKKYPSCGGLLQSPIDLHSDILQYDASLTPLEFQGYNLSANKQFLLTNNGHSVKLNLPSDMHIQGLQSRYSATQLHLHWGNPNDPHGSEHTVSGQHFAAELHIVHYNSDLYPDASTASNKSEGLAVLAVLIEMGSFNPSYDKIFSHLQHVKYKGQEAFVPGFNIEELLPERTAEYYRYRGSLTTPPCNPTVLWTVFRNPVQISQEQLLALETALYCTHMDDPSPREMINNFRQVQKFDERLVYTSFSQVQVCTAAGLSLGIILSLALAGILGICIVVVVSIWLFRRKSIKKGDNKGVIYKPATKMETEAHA", "experiment": "flow cytometry, percent positive cells, NCI-H460 (lung)", "procedure": "(§1) 27B6 and 4B4 monoclonal antibodies were analyzed for binding to various cell lines obtained from KCLB (Korean Cell Line Bank) and SNU (Seoul National University) using flow cytometry. Briefly, various cell lines were obtained from KCLB (Korean Cell Line Bank) and SNU (Seoul National University). At 37° C. under a 5% CO₂ atmosphere, L-132, SW-900, DU145, LNCap, MCF-7, Huh7, and Hs-578T were cultured in Dulbecco's MEM (GIBCO, Invitrogen) supplemented with 10% heat-inactivated fetal bovine serum (FBS; GIBCO, Invitrogen) and A549, NCI-H460, NCI-H417, DLD-1, HCT116, HT-29, SW-480, SW-620, LS174T, PC-3, SNU1, SNU638, SNU719, MKN1, MKN28, MKN45, MKN74, NCI-N87, SK-BR3, MDA-MB231, and MDA-MB453 were cultured in RPMI 1640 (GIBCO, Invitrogen) supplemented with 10% heat-inactivated FBS. […]\n(§2) The cultured cancer cell lines were incubated with the 27B6 or the 4B4 monoclonal antibody of the present disclosure at 4° C. for 30 min, washed with PBS, and treated with FITC-conjugated goat anti-mouse IgG (DiNona Inc, Korea) at 4° C. for 15 min. […] Also, titers of the 27B6 and the 4B4 antibody were measured in various solid tumor cell lines."}, "[2]": {"target": "T1, carbonic anhydrase 12 (CA-XII) as …", "experiment": "flow cytometry (A549 cells, per paragraph 138)", "procedure": "(§3) Three days post transfection, the supernatant was taken and added to A549 cells, which were then incubated at 4° C. for 30 min. Unbound antibodies were removed by centrifugation, together with 3 ml of PBS, at 1500 rpm for 3 min. The bound antibodies were detected by incubation with a 150-fold dilution of the secondary antibody goat anti-Mouse Ig-FITC (Dinona) at 4° C. for 15 min, followed by washing with 3 ml of PBS in the same manner. Thereafter, the antibody titer to A549 cells was measured by flow cytometry. Subsequently, a stable cell line was established. For this, the medium was exchanged with a PowerCHO medium (LONZA, Switzerland) supplemented with 30 nM MTX (Sigma, USA) and 200 μg/ml G418 (Invitrogen, USA), after which clone selection was started. Concentrations of MTX and G418 in the selection medium were increased with the repetition of clone selection rounds. Each round was set to be three weeks. The final round of clone selection was performed in a PowerCHO medium supplemented with 1000 nM of MTX and 400 μg/ml of G418. Thereafter, the final cell line was established as a single colony through limiting dilution."}, "[3]": {"target": "T1, carbonic anhydrase 12 (CA-XII) as …", "experiment": "flow cytometry, percent positive cells, HCT116 (colon)", "procedure": "as §1, §2"}, "[4]": {"target": "T1, carbonic anhydrase 12 (CA-XII) as …", "experiment": "flow cytometry (A549 cells, per paragraph 117)", "procedure": "as §3, with “A549 cells” for “A549 cells,”, “measured using” for “measured by”, “nM” for “nM of”, “μg/ml” for “μg/ml of”"}}}
{"binder": "4B4 monoclonal antibody (antibody, V domains shown, Mouse hybridoma antibody; also called 4B4 Ab; mouse 4B4 antibody) VH: EIQLQQSGPELVKPGASVKISCKASGYSYTDYNIYWVRQSQGKSLDWIGYIDPANGDTTYNQKFKGKATLTVDKSSSTAFMHLNSLTSDGSAVYFCARPIYYGVYWYFDVWGAGTTVTVS VL: DIVMTQAAPSVPVTPGESVSISCRSSKSLLHSNGNTYLYWFLQRPGQSPQLLIYRMSNLASGVPDRFSGSGSGTAFTLRISRVEAEDVGVYYCMQHLEYPFTFGSGTKLEIK", "values": [{"measurement": "binding result", "setting": "[1]", "result": "binds"}]}
{"binder": "4B4 chimeric antibody (antibody, V domains shown, Chimeric antibody: mouse 4B4 variable regions, the rest 'substituted with the Fc of the human antibody'; Produced in CHO DG44 cells; also called chimeric 4B4; 4B4-HuIgFc) VH: EIQLQQSGPELVKPGASVKISCKASGYSYTDYNIYWVRQSQGKSLDWIGYIDPANGDTTYNQKFKGKATLTVDKSSSTAFMHLNSLTSDGSAVYFCARPIYYGVYWYFDVWGAGTTVTVS VL: DIVMTQAAPSVPVTPGESVSISCRSSKSLLHSNGNTYLYWFLQRPGQSPQLLIYRMSNLASGVPDRFSGSGSGTAFTLRISRVEAEDVGVYYCMQHLEYPFTFGSGTKLEIK", "values": [{"measurement": "binding result", "setting": "[2]", "result": "binds"}]}
{"binder": "27B6 monoclonal antibody (antibody, mouse IgG1, V domains shown, also called 27B6 Ab; mouse 27B6 antibody) VH: QVQLQQSGPQLVWPGASVKISCNTSGYSFTNYWIHWVKQRPGQGLEWIGMIDPSDSETRLNQKFKDKTTLTVDRSSSTAYMQVSSSTSEDSAVYYCTRGIRGGYYAMDYWGQGTSVTVSS VL: DIQMTQTTSSLSASLGDRVTISCRASQDISNYLNWYQQKPEGTVKLLIYYTSRLHSGVPSRFSGSGSGTDYSLTISNLEQEDIATYFCQQGDTLPRTFGEGTKLEIR", "values": [{"measurement": "binding result", "setting": "[3]", "result": "binds"}]}
{"binder": "27B6 chimeric antibody (antibody, V domains shown, Chimeric antibody: mouse 27B6 variable regions, the rest 'substituted with the Fc of the human antibody'; Produced in CHO DG44 cells; also called chimeric 27B6; 27B6-HuIgFc) VH: QVQLQQSGPQLVWPGASVKISCNTSGYSFTNYWIHWVKQRPGQGLEWIGMIDPSDSETRLNQKFKDKTTLTVDRSSSTAYMQVSSSTSEDSAVYYCTRGIRGGYYAMDYWGQGTSVTVSS VL: DIQMTQTTSSLSASLGDRVTISCRASQDISNYLNWYQQKPEGTVKLLIYYTSRLHSGVPSRFSGSGSGTDYSLTISNLEQEDIATYFCQQGDTLPRTFGEGTKLEIR", "values": [{"measurement": "binding result", "setting": "[4]", "result": "binds"}]}
